Experimental data: the RNAGym collection of RNA variant scans (doi:10.1073/pnas.2313332121)

B1: TPR t1 (parent)
chain: GACCAAUCUGCCCUCAGAGCUCGAGAACAUCUUCGGAUGCAGAGGAGGCAGGCUUCGGUGGCGCGAUAGCGCCAACGUCCUCAACCUCCAAUGCAUCCCACCACAUGAUGAUGCCUGAAGAGCCUUGGUUUUUUG

Variants of: B1
Test: polymerase ribozyme fitness, log enrichment relative to wild type (log ratio); higher = more active; in vitro selection for triplet polymerase activity
In short: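 One round of in vitro selection, in triplicate, was applied to PCR-built, transcribed mutant libraries of each subunit of a heterodimeric triplet polymerase ribozyme. The steps were annealing with a biotinylated primer, partner subunit and triplets, incubation frozen at −7 °C, gel excision of extended constructs, streptavidin-bead capture and RT-PCR. Fitness is the logarithm, base 2, of genotype enrichment over wild-type enrichment from inverse-variance-weighted replicate averages of Illumina-sequenced inputs and outputs, keeping genotypes with ≥10 input reads and ≥1 read per output.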

Going from GACCAAUCUGCCCUCAGAGCUCGAGAACAUCUUCGGAUGCAGAGGAGGCAGGCUCCGGUGGCGCGAUAGCGCCAACGUCCUCAACCUCCAAUGCAUCCCACCACAUGAUGUUGCCUGAAGAGCCUUGGUUUUUUG to GACCAAUCUGCCCUCAGAGCUCGAGAACAUCUUCGGAUGCAGAGGAGGCAGGCUACGGUGGCCCGAUAGCGCCAACGUCCUCAACCUCCAAUGCAUCUCACCACAUGAUGAUUCCUGAAGAGCCUUGGUUUUUUG, the “polymerase ribozyme fitness (log ratio)” value falls from -4.15 to -4.52.

First: GACCAAUCUGCCCUCAGAGCUCGAGAACAUCUUCGGAUGCAGAGGAGGCAGGCUCCUGAGGCGCGAUAGCGCCAACGUCCUCAACCUCUAAUGCAUCCCACCACAUGAUGAUGCCUGAAGAGCCUUGGUUUUUUG
Second: GACCAAUCUGCCCUCAGAGCUCGAGAACAUCUUCGGAUGCAGAGGAGGCAGGCUACGGUGGCGCGAUAGCGCCAACGUCCUCAACCUACAAUGCAUCCCACCACAUGAUGAUGCCUGAAGAGCCUUGGUUUUUUG
The “polymerase ribozyme fitness (log ratio)” value of the first is lower: -2.23 for the first, 0.08 for the second.

Compared with GACCAAUCUGCCCUCAGAGCUCGAGAACAUCUUCGGAUGCAGAGGAGGCAGGCUACGGUGUCGCGAUAGCGCCAACGUCCUCAAACUCCAAUGAAUCCCACCACAUGAUGAUGCCUGAAGAGCCUUGGUUUUUUG, GACCAAUCUGCCCUCAGAGCUCGAGAACAUCUUCGGAUGCAGAGGAGGCAGGCUCCGGUGGCGCGAUAGCGCCAACGUCCUCCACCUCCAAUGCAUCCCACCACAUGAUGAUGCCCGAAGAGCCUUGGUUUUUUG is lower in “polymerase ribozyme fitness (log ratio)” value: -0.999 for the first, -2.32 for the second.

First: GACCAAUCUGCCCUCAGAGCUCGAGAACAUCUUCGGAUGCAGAGGAGGCAGGCUCCGGUGGCGUGAUAGCGCCAACGUCCUCAACCUCCAAUGCAUCCCACCACAUGAUGAUGCCUGAAGAGCCUUGGUUUUUUG
Second: GACCAAUCUGCCCUCAGAGCUCGAGAACAUCUUCGGAUGCAGAGGAGGCAGGCUACGGUGGCGCGAUAGCGCCAACGUCCUCAACCUCCAAUGCAUCCCACCACAUGAUGAUGCCUGAAGAGCGUUGGUUUUUUG
The “polymerase ribozyme fitness (log ratio)” value of the first is lower: -0.472 for the first, 1.88 for the second.

GACCAAUCUGCCCUCAGAGCUCGAGAACAUCUUCGGAUGCAGAGGAGGCAGGCUCCGGUGGCGCGAUAGCGGCAACGUCCUCAACCUCCAAUGCAUCCCACCACAUGAUGAUGCCUGAAGAGCCUUGGUUUUUUG and GACCAAUCUGCCCUCAGAGCUCGAGAACAUCUUCGGAUGCAGAGGAGGCAGGCUACGGUGGCGCGAUAGCGCCAACGUCCUCAACGUCCAAUGCAUCCCACCACAUGAUGAUGCCUGAAGAGCCUUGGUAUUUUG are within 0.2 log units of each other in “polymerase ribozyme fitness (log ratio)” value: -0.713 for the first, -0.641 for the second.

Compared with GACCAAUCUGCCCUCAGAGCUCGAGAACAUCUUCGGAUGCAGAGGAGGCAGGCUACGGUGGCGCGAUAUCGCCAACGUCCUCAACCUCCAAUGCAUCCCACCACAUGAUGAUGCCUGAAGAGCCUUGGUUUUUUG, GACCAAUCUGCCCUCAGAGCUCGAGAACAUCUUCGGAUGCAGAGGAGGCAGGCUCCGGUGGCGCGAUAGCGCCAACGUCCUCAACCUCCAAUGCAUCCCACCACAUGAUGAUGCGUGAAGAACCUUGGUUUUUUG is lower in “polymerase ribozyme fitness (log ratio)” value: 0.503 for the first, -1.84 for the second.

Going from GACCAAUCUGCCCUCAGAGCUCGAGAACAUCUUCGGAUGCAGAGGAGGCAGGCUACGGUGGCGCGAUAGCCCCAACGUCCUCAACCUCCAAUGCAUCCCACCACAUGAUGAUGCCUGAAGAGCCUUGGUUUUUUG to GACCAAUCUGCCCUCAGAGCUCGAGAACAUCUUCGGAUGCAGAGGAGGCAGGCUACGGUGGCGCGAUAGCGCCAACGUCCUCAAGGUCCAAUGCAUCCCACCACAUGAUGAGGCCUGAAGAGCCUUGAUUUUUUG, the “polymerase ribozyme fitness (log ratio)” value falls from -1.29 to -2.76.

Compared with GACCAAUCUGCCCUCAGAGCUCGAGAACAUCUUCGGAUGCAGAGGAGGCAGGCUCCGGUGGCGCGGUAGCGCCAACGUCCUCAACCUCCUAUGCAUCCCACCACAUGAUGAUGCCUGAAGAGCCUUGGUUUUUUG, GACCAAUCUGCCCUCAGAGCUCGAGAACAUCUUCGGAUGCAGAGGAGGCAGGCUACGGUGGCACGAUAGCGCAAACGUCCUCAACCUCCAAUGCAUCCCACCACAUGAUGAUGCCUGAAGAGCCUUGGUUUUUUG is higher in “polymerase ribozyme fitness (log ratio)” value: -4.46 for the first, -1.05 for the second.

Compared with GACCAAUCUGCCCUCAGAGCUCGAGAACAUCUUCGGAUGCAGAGGAGGCAGGCUCCGGUAGCGCGAUAGCGCCAACGUCCUAAACCUCCAAUGCAUCCCACCACAUGAUGAUGCCUGAAGAGCCUUGGUUUUUUG, GACCAAUCUGCCCUCAGAGCUCGAGAACAUCUUCGGAUGCAGAGGAGGCAGGCUACGGUGGCGCGAUAGCGCCAACGUCCUCAACCUCCAAUGCAUCCCACCACAUGAUGAAGCCUGAAGAGCCUUGGUUUUUUG is higher in “polymerase ribozyme fitness (log ratio)” value: -0.172 for the first, 1.77 for the second.

Compared with GACCAAUCUGCCCUCAGAGCUCGAGAACAUCUUCGGAUGCAGAGGAGGCAGGCUACGGUGGCGCGAUAGCGCUAACGUCCUCAACCUCCAAUGCAUCCCACCACAUGAUGAUGCCUGAAGAGCCUUGGUUUUUUG, GACCAAUCUGCCCUCAGAGCUCGAGAACAUCUUCGGAUGCAGAGGAGGCAGGCUACGGUGGCGCGAUAGCGCCAACGUCCACAACCUCCAAUGCAUCCCACCACAUGAUGAUGCCUGAAGAGCCUUGGUUUUUUG is lower in “polymerase ribozyme fitness (log ratio)” value: 0.172 for the first, -0.637 for the second.

First: GACCAAUCUGCCCUCAGAGCUCGAGAACAUCUUCGGAUGCAGAGGAGGCAGGCUACGGUGGCGCGAUAACGCCAACGUCCUCAACCUCCAAUGAAUCCCACCACAUGAUGAUGCCUGAAGAGCCUUGGUUUUUUG
Second: GACCAAUCUGCCCUCAGAGCUCGAGAACAUCUUCGGAUGCAGAGGAGGCAGGCUCCGGUGGCGCGAUAGCGCCAACGUCCUCAACCUCCAAUGCAUCCCACCACAUGAUGUUGCCUAAAGAGCCUUGGUUUUUUG
The “polymerase ribozyme fitness (log ratio)” value of the first is higher: -4.1 for the first, -6.33 for the second.

Compared with GACCAAUCUGCCCUCAGAGCUCGAGAACAUCUUCGGAUGCAGAGGAGGCAGGCUCCAGUGGCGCGAUAUCGCCAACGUCCUCAACCUCUAAUGCAUCCCACCACAUGAUUAUGCCUGAAGAGCCUUGGAUUUUUG, GACCAAUCUGCCCUCAGAGCUCGAGAACAUCUUCGGAUGCAGAGGAGGCAGGCUACGGCGGCGCGAUAGCGCCAACGUCCUCAACCUCCAAUGCAUCCCACCACAUGAUGAUGCCUGAAGAGCCUUGGUUUUUUU is higher in “polymerase ribozyme fitness (log ratio)” value: -3.64 for the first, -1.36 for the second.

First: GACCAAUCUGCCCUCAGAGCUCGAGAACAUCUUCGGAUGCAGAGGAGGCAGGCUCUGGUGGCGCGAUAGCGCCAACGCCCUCAACCUCCAAUACAUCCCAACACAUGAUGAUGCCUGAAGAGCCUUGGUUUUUUG
Second: GACCAAUCUGCCCUCAGAGCUCGAGAACAUCUUCGGAUGCAGAGGAGGCAGGCUACGGUGGCGCGAUAGCGCCAACGUCCUCAAACUCCAAUGCAUCCCACCACAUGAUGAUGCGUGAAGAGCCUUGGUUUUUUG
The “polymerase ribozyme fitness (log ratio)” value of the first is higher: -1.12 for the first, -3.37 for the second.

Going from GACCAAUCUGCCCUCAGAGCUCGAGAACAUCUUCGGAUGCAGAGGAGGCAGGCUACGGUGGCGCGAUAGCGCCAACGUCCUCAACCUCCAAUGCAUCCCACCACAUGAUGAUGCCUAAAGAGCCUUGGUUUUUUG to GACCAAUCUGCCCUCAGAGCUCGAGAACAUCUUCGGAUGCAGAGGAGGCAGGCUCCGGUGGCGCGAUAGCGCCAACGUCCUCAACCUCCGAUGGAUCCCACCACAUGAUCAUGCCAGAAGGGCCUUGGUUUUUUG, the “polymerase ribozyme fitness (log ratio)” value falls from -1.34 to -5.82.

Going from GACCAAUCUGCCCUCAGAGCUCGAGAACAUCUUCGGAUGCAGAGGAGGCAGGCUCCUGUGGCGCGCUAGCGCCAACGUCCUCAACCUCCAAUGCAUCCCACCACAUGAUGAUGCCUGAAGAGGCUUGGUUUUUUG to GACCAAUCUGCCCUCAGAGCUCGAGAACAUCUUCGGAUGCAGAGGAGGCAGGCUCCGGUGGCGCGAUAGUGCCAACGUCCUCAACCUCCAAUGCAUCCCACCACAUGAUGAUGCCUGAAGAGCCUUGGUUUUUUG, the “polymerase ribozyme fitness (log ratio)” value rises from -0.734 to -0.302.

Compared with GACCAAUCUGCCCUCAGAGCUCGAGAACAUCUUCGGAUGCAGAGGAGGCAGGCUACGGUGGCGCGAUAGCGCCAACCUCCUCAACCUCCAAUGCAUCCCACCAAAUGAUGAUGCCUGAAGAGCCUUGGUUUUUUG, GACCAAUCUGCCCUCAGAGCUCGAGAACAUCUUCGGAUGCAGAGGAGGCAGGCUCCAGUGGCGCGAUAGCGCCAACGUCCUCAACCUCCAAUGCAUCCCACCACAAGAUUAUGCCUGAAGAGUCUUGGUUUUUUG is lower in “polymerase ribozyme fitness (log ratio)” value: -1.93 for the first, -3.04 for the second.

Compared with GACCAAUCUGCCCUCAGAGCUCGAGAACAUCUUCGGAUGCAGAGGAGGCAGGCUACGGUGGCGCGAUACCGCCAACGUCCUCAACCGCCAAUUCAUCCCACCACAUGAUGAUGCCUGAAGAGCCUUGGUUUUUUG, GACCAAUCUGCCCUCAGAGCUCGAGAACAUCUUCGGAUGCAGAGGAGGCAGGCUCCGGUGGCGCGAUAGCGCCAACGUCCUCGAUCUCCAAUGCAUCCCACCACAUGAUGAUGCCUGAAGAGCAUUGGUUUUUUG is higher in “polymerase ribozyme fitness (log ratio)” value: -1.37 for the first, 0.55 for the second.

First: GACCAAUCUGCCCUCAGAGCUCGAGAACAUCUUCGGAUGCAGAGGAGGCAGGCUACGGUGGCGCGAUAGCGCCAACGUCCUCAACCUCCAAUGCAUCCCACCAAAUGAUGAUCCCUGAAGAUCCUUGGUUUUUUG
Second: GACCAAUCUGCCCUCAGAGCUCGAGAACAUCUUCGGAUGCAGAGGAGGCAGGCUCCGGUGGCGCGAUAGCGCCAACGUACUCAACCUCCAAUGCAUCCCACCACAUGAUGAUGCCUGAAGAGCCUUGGUUUUUUG
The “polymerase ribozyme fitness (log ratio)” value of the first is lower: -3.73 for the first, -2.08 for the second.

First: GACCAAUCUGCCCUCAGAGCUCGAGAACAUCUUCGGAUGCAGAGGAGGCAGGCUACGGUGGCGCGAUAGCGCUAACGUCCUCAAACUCCAAUGCAUCCCACCACAUGAUGAUGCGUGAAGAGCCUUGGUUUUUUG
Second: GACCAAUCUGCCCUCAGAGCUCGAGAACAUCUUCGGAUGCAGAGGAGGCAGGCUCCGGUGGCGCGAUAGCGCCAACGUCCUCAACCUCCAAUGCAUCCCACCACAUGAUGUUGCCUGACGAGCCUUGGUUUUUUG
The “polymerase ribozyme fitness (log ratio)” value of the first is higher: -3.38 for the first, -5.71 for the second.

First: GACCAAUCUGCCCUCAGAGCUCGAGAACAUCUUCGGAUGCAGAGGAGGCAGGCUACGGUGGCGCGAUAGCGCCGACGUCCUGAACCUCCAAUGCAUCCCACCACAUGAUGAUGCCUGAAGAGGCUUGGUUUUUUG
Second: GACCAAUCUGCCCUCAGAGCUCGAGAACAUCUUCGGAUGCAGAGGAGGCAGGCUACGGUGGCGCGAUAGCGCCAACGUACUCAACCUCCAAUGCAUCCCACCACAUGAUGAUGCCUGAAGAGCCGUGGUUUUGUG
The “polymerase ribozyme fitness (log ratio)” value of the first is higher: 1.26 for the first, -4.8 for the second.

First: GACCAAUCUGCCCUCAGAGCUCGAGAACAUCUUCGGAUGCAGAGGAGGCAGGCUCUGGCGGCGCGAUAGCGCCAACGUCCUCAACCUCCAAUGCAUCCCACCACAUGAUGAUGCCUGAAGAGCCUUGGUUUUUUG
Second: GACCAAUCUGCCCUCAGAGCUCGAGAACAUCUUCGGAUGCAGAGGAGGCAGGCUACGGUGGCGCGAUAGCGCCAACGUCCACAACCUCCAAUGCAUCCCACCACAUGAUGAUACCUGAAGAGCCUUGGUUUUUUG
The “polymerase ribozyme fitness (log ratio)” value of the first is higher: -0.103 for the first, -2.4 for the second.
